Experimental data from PMC10397247.
One block for each binder: values may come before it.

Legend:
Test in all cases: two-hybrid library CCNG1;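 also: natural log of median RNA to DNA barcode read ratio; higher means stronger binding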
[1] = target: T1, 4H741-bN
T1 chain: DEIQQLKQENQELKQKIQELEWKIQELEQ

[2] = target: T2, O2-bS
T2 chain: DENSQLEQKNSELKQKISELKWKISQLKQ

[3] = target: T3, 4H570-bH
T3 chain: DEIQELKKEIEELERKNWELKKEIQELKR

[4] = target: T4, 4H619-bH
T4 chain: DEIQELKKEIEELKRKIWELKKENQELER

[5] = target: T5, 4H3638-bH
T5 chain: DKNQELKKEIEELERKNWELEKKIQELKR

[6] = target: T6, 4H850-bH
T6 chain: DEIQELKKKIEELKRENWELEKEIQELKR

[7] = target: T7, 4H3414-bH
T7 chain: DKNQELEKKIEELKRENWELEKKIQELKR

[8] = target: T8, 4H3817-bH
T8 chain: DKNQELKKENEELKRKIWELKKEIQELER

[9] = target: T9, 4H3974-bH
T9 chain: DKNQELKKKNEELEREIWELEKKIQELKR

[10] = target: T10, 4H3631-bH
T10 chain: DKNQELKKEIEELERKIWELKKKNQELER

[11] = target: T11, 4H584-bH
T11 chain: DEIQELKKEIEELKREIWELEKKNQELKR

[12] = target: T12, 4H906-bH
T12 chain: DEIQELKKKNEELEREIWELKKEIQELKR

[13] = target: T13, 4H3172-bH
T13 chain: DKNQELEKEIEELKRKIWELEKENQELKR

[14] = target: T14, 4H477-bN
T14 chain: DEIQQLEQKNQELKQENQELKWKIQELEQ

[15] = target: T15, 4H3381-bH
T15 chain: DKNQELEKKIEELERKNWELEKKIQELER

[16] = target: T16, 4H730-bH
T16 chain: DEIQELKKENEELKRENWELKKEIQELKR

[17] = target: T17, 4H2585-bH
T17 chain: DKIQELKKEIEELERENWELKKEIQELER

[18] = target: T18, 4H56-bH
T18 chain: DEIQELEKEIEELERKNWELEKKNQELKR

[19] = target: T19, 4H3364-bH
T19 chain: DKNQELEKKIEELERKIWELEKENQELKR

[20] = target: T20, 4H3297-bH
T20 chain: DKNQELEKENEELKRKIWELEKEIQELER

[21] = target: T21, 4H796-bH
T21 chain: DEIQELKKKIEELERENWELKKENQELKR

[22] = target: T22, 4H2760-bH
T22 chain: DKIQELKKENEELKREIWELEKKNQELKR

[23] = target: T23, 4H2859-bH
T23 chain: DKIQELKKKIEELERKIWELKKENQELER

[24] = target: T24, 4H264-bH
T24 chain: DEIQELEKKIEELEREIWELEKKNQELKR

[25] = target: T25, 4H2931-bH
T25 chain: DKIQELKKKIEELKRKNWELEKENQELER

[26] = target: T26, 4H349-bH
T26 chain: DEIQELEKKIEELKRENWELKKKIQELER

[27] = target: T27, 4H3041-bH
T27 chain: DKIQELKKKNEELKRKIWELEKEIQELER

[28] = target: T28, 4H4001-bH
T28 chain: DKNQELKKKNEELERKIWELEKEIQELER

[29] = target: T29, 4H949-bH
T29 chain: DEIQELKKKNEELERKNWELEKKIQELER

[30] = target: T30, 4H932-bH
T30 chain: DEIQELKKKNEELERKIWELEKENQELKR

[31] = target: T31, 4H470-bA
T31 chain: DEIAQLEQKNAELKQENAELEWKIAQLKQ

[32] = target: T32, 4H3961-bA; conditions: mean of both orientations
T32 chain: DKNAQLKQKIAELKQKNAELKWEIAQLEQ

[33] = target: T33, P9A-bN
T33 chain: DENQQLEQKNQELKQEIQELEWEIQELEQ

[34] = target: T34, P8A-bN
T34 chain: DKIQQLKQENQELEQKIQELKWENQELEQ

[35] = target: T35, P9mSN
T35 chain: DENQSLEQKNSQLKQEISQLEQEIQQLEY

[36] = target: T36, P7A-bN
T36 chain: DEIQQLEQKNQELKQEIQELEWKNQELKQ

[37] = target: T37, O8-bS
T37 chain: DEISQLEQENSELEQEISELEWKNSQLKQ

[38] = target: T38, O7-bS
T38 chain: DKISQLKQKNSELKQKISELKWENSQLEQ

[39] = target: T39, O5-bS
T39 chain: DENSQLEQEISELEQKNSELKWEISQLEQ

[40] = target: T40, O9-bS
T40 chain: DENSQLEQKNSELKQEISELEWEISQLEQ

[41] = target: T41, O4-bS
T41 chain: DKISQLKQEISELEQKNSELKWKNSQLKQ

[42] = target: T42, O6-bS
T42 chain: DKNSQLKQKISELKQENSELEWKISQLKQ

[43] = target: T43, 4H797-bH
T43 chain: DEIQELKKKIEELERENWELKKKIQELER

[44] = target: T44, 4H72-bH
T44 chain: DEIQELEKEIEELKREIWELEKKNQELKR

[45] = target: T45, 4H331-bH
T45 chain: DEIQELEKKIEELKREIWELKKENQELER

[46] = target: T46, 4H607-bH
T46 chain: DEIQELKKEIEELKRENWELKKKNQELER

[47] = target: T47, 4H3782-bH
T47 chain: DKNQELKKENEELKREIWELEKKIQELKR

[48] = target: T48, 4H687-bH
T48 chain: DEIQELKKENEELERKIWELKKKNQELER

[49] = target: T49, 4H3606-bH
T49 chain: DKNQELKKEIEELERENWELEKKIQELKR

[50] = target: T50, 4H967-bH
T50 chain: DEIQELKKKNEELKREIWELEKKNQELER

[51] = target: T51, 4H883-bH
T51 chain: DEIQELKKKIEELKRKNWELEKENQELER

[52] = target: T52, 4H462-bH
T52 chain: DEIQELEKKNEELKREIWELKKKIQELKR

[53] = target: T53, 4H918-bH
T53 chain: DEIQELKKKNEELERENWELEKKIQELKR

[54] = target: T54, 4H3843-bH
T54 chain: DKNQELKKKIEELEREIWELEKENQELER

[55] = target: T55, 4H568-bH
T55 chain: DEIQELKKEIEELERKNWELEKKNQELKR

[56] = target: T56, 4H370-bH
T56 chain: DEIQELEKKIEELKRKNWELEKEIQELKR

[57] = target: T57, 4H3189-bH
T57 chain: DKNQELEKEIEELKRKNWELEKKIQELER

[58] = target: T58, 4H2697-bH
T58 chain: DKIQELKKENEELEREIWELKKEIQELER

[59] = target: T59, 4H953-bH
T59 chain: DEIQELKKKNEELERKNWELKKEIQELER

[60] = target: T60, 4H796-bA
T60 chain: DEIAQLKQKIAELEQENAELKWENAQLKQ

[61] = target: T61, 4H932-bA
T61 chain: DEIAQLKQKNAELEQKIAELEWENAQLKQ

[62] = target: T62, O3-bS
T62 chain: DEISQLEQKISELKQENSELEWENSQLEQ

[63] = target: T63, 4H949-bA
T63 chain: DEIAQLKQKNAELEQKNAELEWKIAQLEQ

[64] = target: T64, 4H3129-bH
T64 chain: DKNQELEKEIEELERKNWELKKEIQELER

Binder: DEIQQLKQENQELKQKIQELEWKIQELEQ [4H741-bN]
interaction score [1]: 1.19
interaction score [2]: -3.38

Binder: DKNQELEKEIEELKRKIWELEKENQELKR [4H3172-bH]
interaction score [3]: 0.871
interaction score [4]: -1.22
interaction score [5]: -0.13
interaction score [6]: -0.531
interaction score [7]: 0.693
interaction score [8]: -0.475
interaction score [9]: 0.353
interaction score [10]: 0.994
interaction score [11]: -1.68
interaction score [12]: -0.821
interaction score [13]: 0.448

Binder: DKIQELKKEIEELERENWELKKEIQELER [4H2585-bH]
interaction score [14]: -0.435
interaction score [15]: -0.48
interaction score [16]: -0.529
interaction score [17]: -0.17
interaction score [18]: 0.21
interaction score [19]: -0.536
interaction score [20]: -0.417
interaction score [21]: -0.9
interaction score [22]: 0.55
interaction score [23]: 0.965
interaction score [24]: -0.751
interaction score [25]: -0.336
interaction score [26]: 1.63
interaction score [27]: 0.00364
interaction score [28]: -0.0821
interaction score [29]: -0.693
interaction score [30]: -1.27

Binder: DENSQLEQKNSELKQKISELKWKISQLKQ [O2-bS]
interaction score [37]: -2.49
interaction score [38]: -0.412
interaction score [39]: -2.56
interaction score [40]: -1.59
interaction score [41]: -1.49
interaction score [42]: -1.1
interaction score [2]: -0.754

Binder: DEIQQLEQKNQELKQEIQELEWKNQELKQ [P7A-bN]
interaction score [33]: -1.19
interaction score [34]: 2.12
interaction score [36]: 0.344

Binder: DKNQELEKEIEELERKNWELKKEIQELER [4H3129-bH]
interaction score [3]: -1.61
interaction score [4]: -0.44
interaction score [5]: -1.18
interaction score [6]: 0.17
interaction score [7]: 1.62
interaction score [8]: -0.197
interaction score [9]: -0.348
interaction score [64]: -2.16
interaction score [10]: -0.645
interaction score [11]: -0.445
interaction score [12]: -0.384
interaction score [13]: -0.227

Binder: DEIAQLEQKNAELKQENAELEWKIAQLKQ [4H470-bA]
interaction score [31]: 0.201

Now from value to binder:

interaction score [31]: -0.153
interaction score [32]: -1.09
Binder: DKNAQLKQKIAELKQKNAELKWEIAQLEQ [4H3961-bA]

interaction score [33]: 0.0031
interaction score [34]: -0.195
interaction score [35]: -0.239
interaction score [36]: 0.204
Binder: DKNQQLKQEIQELEQENQELEWKIQELKQ [P6A-bN]

interaction score [43]: -0.611
interaction score [44]: -1.97
interaction score [45]: 0.0266
interaction score [46]: -0.619
interaction score [47]: 0.502
interaction score [48]: -0.768
interaction score [49]: -1.34
interaction score [50]: 0.26
interaction score [51]: -0.628
interaction score [52]: -0.915
interaction score [53]: -0.619
interaction score [54]: -0.103
interaction score [55]: -1.4
interaction score [56]: -0.895
interaction score [57]: -0.0723
interaction score [58]: 0.402
interaction score [59]: -0.201
interaction score [28]: -0.578
Binder: DKIQELKKENEELEREIWELKKEIQELER [4H2697-bH]

interaction score [60]: 0.961
interaction score [61]: -0.164
interaction score [62]: -0.947
interaction score [63]: -0.898
Binder: DEIAQLKQKIAELEQENAELKWENAQLKQ [4H796-bA]
